Article PMC8307404, “Crystal Structure-Guided Design of Bisubstrate Inhibitors and Photoluminescent Probes for Protein Kinases of the PIM Family” (Molecules, 2021)
Square brackets hold non-standard residues; d marks the D form. Peptide text beside a SMILES is read from it. * marks the point of attachment. X3 = O=C(CCCCCNCc1nc2c(sc3cc(Br)cnc32)c(=O)[nH]1)*

How the values were obtained:
[1] = molecular target: DYRK1A (Homo sapiens, UniProt Q13627); experiment: Kinase profiling (radiometric filter-binding); format: biochemical; details: 1 µM inhibitor, read-out: Residual activity, %
Protocol: (§1) Kinase selectivity profiling was performed using the commercial service provided by the MRC PPU International Centre for Kinase Profiling (Dundee, UK) using a radiometric filter-binding assay. Kinases used for analysis were of human origin. The ATP concentration applied for inhibition measurements was at or below the ATP KM value of the particular PK. ARC-3125 and ARC-3126 were screened against 139 PKs, whereas compounds 1, 2, and 8 were screened against 140 PKs. The final total concentration of inhibitors in the selectivity panel was 1 µM. Residual activities were expressed as the percentage of retained activity compared to the control without inhibitor.

[2] = molecular target: CAMK1 (Homo sapiens, UniProt Q14012); experiment: Kinase profiling (radiometric filter-binding); format: biochemical; details: CAMK1, 1 µM inhibitor; read-out: Residual activity, %
Chain of CAMK1 (Q14012 whole entry): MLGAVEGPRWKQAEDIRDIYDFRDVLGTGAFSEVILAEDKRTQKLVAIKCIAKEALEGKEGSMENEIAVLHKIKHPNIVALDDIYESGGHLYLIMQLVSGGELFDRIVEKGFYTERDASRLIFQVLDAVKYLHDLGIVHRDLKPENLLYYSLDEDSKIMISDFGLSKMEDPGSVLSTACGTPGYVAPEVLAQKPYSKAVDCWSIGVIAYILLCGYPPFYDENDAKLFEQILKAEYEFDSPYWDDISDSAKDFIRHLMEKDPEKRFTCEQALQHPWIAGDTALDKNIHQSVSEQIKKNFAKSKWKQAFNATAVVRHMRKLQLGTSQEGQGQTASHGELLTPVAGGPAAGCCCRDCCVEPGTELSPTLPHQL
Protocol: as §1

[3] = molecular target: RSK1 (Homo sapiens, UniProt Q15418); experiment: Kinase profiling (radiometric filter-binding); format: biochemical; details: RSK1, 1 µM inhibitor; read-out: Residual activity, %
Chain of RSK1 (Q15418 whole entry): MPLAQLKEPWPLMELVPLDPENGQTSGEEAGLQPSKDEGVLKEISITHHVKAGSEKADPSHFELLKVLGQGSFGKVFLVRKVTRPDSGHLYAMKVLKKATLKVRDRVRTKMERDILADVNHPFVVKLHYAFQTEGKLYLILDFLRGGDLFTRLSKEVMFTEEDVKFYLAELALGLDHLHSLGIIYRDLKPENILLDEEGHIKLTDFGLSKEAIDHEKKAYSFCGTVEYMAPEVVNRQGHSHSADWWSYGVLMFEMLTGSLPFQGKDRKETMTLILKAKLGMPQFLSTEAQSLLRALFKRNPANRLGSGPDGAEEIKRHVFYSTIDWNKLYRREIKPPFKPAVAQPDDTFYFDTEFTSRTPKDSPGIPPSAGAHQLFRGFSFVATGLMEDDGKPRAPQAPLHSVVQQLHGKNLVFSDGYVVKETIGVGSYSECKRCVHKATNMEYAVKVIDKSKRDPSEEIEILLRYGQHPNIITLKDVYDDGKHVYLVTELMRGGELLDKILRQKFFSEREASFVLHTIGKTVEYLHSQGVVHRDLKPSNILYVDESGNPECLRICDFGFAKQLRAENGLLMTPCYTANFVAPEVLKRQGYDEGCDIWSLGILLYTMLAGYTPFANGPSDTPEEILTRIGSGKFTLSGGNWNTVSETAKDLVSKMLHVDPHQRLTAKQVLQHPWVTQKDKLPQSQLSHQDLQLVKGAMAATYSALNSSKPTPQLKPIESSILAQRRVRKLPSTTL
Protocol: as §1

[4] = molecular target: T1, TAO1 (Homo sapiens, UniProt Q7L7X3); experiment: Kinase profiling (radiometric filter-binding); format: biochemical; details: TAO1, 1 µM inhibitor; read-out: Residual activity, %
T1 sequence (Q7L7X3 1-1001): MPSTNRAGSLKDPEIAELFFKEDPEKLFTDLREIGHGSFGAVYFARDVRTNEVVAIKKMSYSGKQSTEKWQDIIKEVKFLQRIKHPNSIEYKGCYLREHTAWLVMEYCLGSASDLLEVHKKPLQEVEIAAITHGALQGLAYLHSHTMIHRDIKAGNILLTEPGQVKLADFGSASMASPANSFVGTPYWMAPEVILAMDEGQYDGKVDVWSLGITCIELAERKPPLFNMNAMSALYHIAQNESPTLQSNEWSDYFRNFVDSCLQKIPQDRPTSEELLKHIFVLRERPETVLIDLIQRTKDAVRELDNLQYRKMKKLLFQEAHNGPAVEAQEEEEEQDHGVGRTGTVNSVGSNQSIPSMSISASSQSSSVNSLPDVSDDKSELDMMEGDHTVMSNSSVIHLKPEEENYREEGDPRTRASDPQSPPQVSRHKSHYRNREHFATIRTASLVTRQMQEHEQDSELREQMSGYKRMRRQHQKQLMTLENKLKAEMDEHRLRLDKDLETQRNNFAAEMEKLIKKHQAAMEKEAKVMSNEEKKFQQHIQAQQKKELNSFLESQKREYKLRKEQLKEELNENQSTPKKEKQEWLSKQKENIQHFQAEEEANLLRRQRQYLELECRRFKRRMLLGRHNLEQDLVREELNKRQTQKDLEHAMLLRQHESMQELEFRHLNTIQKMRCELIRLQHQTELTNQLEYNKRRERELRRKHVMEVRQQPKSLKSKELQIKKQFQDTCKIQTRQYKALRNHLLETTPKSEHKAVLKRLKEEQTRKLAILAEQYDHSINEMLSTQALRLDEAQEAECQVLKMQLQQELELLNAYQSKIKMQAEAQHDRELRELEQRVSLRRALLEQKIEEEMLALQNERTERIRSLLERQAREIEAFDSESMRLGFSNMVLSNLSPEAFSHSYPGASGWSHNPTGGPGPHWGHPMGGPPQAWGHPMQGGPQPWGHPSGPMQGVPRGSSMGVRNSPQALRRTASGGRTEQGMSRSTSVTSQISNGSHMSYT
Protocol: as §1

[5] = molecular target: PKBβ (Homo sapiens, UniProt P31751); experiment: Kinase profiling (radiometric filter-binding); format: biochemical; details: PKB, second of two PKB lines (Greek letter lost; PKBβ), 1 µM inhibitor; read-out: Residual activity, %
Chain of PKBβ (P31751 whole entry): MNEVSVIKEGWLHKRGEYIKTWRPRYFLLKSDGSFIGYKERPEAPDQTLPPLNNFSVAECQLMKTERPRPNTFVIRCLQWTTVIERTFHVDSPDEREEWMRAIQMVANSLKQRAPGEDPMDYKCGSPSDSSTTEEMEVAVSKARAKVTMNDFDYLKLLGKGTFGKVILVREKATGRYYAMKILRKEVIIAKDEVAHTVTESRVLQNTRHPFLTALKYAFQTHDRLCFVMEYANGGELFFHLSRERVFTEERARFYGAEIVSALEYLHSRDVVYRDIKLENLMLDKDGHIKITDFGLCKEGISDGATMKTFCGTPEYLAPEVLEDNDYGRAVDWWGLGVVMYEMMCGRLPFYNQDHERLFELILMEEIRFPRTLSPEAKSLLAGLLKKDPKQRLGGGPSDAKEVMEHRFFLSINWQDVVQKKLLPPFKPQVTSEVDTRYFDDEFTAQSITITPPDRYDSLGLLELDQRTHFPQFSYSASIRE
Protocol: as §1

[6] = molecular target: PAK6 (Homo sapiens, UniProt Q9NQU5); experiment: Kinase profiling (radiometric filter-binding); format: biochemical; details: PAK6, 1 µM inhibitor; read-out: Residual activity, %
Chain of PAK6 (Q9NQU5 whole entry): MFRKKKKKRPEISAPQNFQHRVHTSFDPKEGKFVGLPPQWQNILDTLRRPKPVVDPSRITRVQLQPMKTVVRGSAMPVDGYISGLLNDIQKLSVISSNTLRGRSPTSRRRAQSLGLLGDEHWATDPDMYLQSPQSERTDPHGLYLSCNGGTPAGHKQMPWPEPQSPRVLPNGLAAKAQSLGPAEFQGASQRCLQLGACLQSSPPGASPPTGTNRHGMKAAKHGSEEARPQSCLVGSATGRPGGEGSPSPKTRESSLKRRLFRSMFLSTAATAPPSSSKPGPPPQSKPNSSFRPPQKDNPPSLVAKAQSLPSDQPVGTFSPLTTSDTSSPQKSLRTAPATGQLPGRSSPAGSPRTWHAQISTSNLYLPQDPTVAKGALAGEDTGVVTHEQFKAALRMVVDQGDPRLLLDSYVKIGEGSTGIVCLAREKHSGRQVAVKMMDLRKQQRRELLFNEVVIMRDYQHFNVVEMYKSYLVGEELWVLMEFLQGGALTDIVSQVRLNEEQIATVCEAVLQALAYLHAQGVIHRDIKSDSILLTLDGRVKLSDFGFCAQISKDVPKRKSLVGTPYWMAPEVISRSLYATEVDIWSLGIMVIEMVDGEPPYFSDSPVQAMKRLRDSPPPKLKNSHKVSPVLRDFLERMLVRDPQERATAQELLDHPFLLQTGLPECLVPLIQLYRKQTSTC
Protocol: as §1

[7] = molecular target: T2, TBK1 (Homo sapiens, UniProt Q9UHD2); experiment: Kinase profiling (radiometric filter-binding); format: biochemical; details: TBK1, 1 µM inhibitor; read-out: Residual activity, %
T2 sequence (Q9UHD2 1-729): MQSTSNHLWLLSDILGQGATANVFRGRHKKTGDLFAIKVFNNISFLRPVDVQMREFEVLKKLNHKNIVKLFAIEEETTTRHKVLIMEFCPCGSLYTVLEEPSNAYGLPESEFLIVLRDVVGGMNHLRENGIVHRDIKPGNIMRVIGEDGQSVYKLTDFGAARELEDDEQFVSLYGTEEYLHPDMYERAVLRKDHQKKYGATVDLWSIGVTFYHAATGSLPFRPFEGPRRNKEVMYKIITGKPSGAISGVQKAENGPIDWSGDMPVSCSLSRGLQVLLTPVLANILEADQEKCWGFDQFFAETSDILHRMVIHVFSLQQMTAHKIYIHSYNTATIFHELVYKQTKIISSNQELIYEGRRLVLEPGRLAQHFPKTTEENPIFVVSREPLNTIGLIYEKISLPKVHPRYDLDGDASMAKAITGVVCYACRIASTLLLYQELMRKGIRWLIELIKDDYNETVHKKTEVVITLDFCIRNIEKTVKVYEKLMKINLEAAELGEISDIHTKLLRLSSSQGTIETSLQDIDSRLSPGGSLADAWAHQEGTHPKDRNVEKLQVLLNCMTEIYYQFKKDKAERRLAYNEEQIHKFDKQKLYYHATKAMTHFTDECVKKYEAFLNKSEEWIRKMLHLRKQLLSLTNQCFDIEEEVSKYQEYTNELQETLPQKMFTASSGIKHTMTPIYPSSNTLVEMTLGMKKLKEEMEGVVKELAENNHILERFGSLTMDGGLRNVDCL
Protocol: as §1

[8] = molecular target: PIM3 (Homo sapiens, UniProt Q86V86); experiment: Binding/displacement assay with FA or TGLI readout; design: made in house; details: mean ± SEM, N = 2
Protocol: (§2) The affinities of the compounds toward the PIM family PKs were determined in a binding/displacement assay with measurement of fluorescence anisotropy (FA) and time-gated luminescence intensity (TGLI) (Table 2). For the initial assessment of the selectivity of compounds, PKAcα was used as the reference basophilic kinase [10].
(§3) Optical FA measurement modules for 5-TAMRA-labeled compounds (ex. 540(20) nm, em. 590(20) nm and 590(20) nm), for Cy5-labeled compounds (ex. 590(50) nm, em. 675(50) nm and 675(50) nm), and optical TGLI measurement modules for ARC-1451 (ex. 330(60) nm, em. 590(50) nm), for ARC-1188 (ex. 330(60) nm, em. 675(50) nm) were used for assays with PHERAstar microplate reader (BMG Labtech; Ortenberg, Germany). TGLI measurements were performed with a delay time of 50 μs and integration of the signal for 150 μs. In each measurement, emission from 200 flashes of excitation radiation was collected. The measurement solutions (20 µL volumes) were prepared in black 384-well low-binding surface microtiter plates (Corning #4514; Kennebunk, ME, USA) and incubated for 20 min at 30 °C before the measurements. The assay buffer contained HEPES hemisodium salt (pH 7.4, 50 mM), NaCl (150 mM), dithiothreitol (5 mM), bovine serum albumin (0.5 mg/mL), and Tween-20 (0.005%). […] 5.04 (GraphPad Software, Inc.) was used for data analysis with FA [32] or TGLI [33] readouts.

[9] = molecular target: PIM1 (Homo sapiens, UniProt P11309); experiment: Binding/displacement assay with FA or TGLI readout; design: made in house; details: KD, nM (PIM-1), TGLI or FA readout; mean ± SEM, N = 2
Chain of PIM1 (P11309 whole entry): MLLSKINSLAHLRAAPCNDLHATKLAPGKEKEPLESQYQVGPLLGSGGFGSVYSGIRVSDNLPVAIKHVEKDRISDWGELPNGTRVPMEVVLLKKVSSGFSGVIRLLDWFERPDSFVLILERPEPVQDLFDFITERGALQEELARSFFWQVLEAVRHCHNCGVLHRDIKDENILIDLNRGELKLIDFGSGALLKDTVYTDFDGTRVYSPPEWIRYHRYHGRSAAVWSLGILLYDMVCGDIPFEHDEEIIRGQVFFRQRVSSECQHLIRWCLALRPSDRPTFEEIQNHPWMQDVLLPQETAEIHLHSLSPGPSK
Protocol: as §2, §3

[10] = test system: p38 MAPK; experiment: Kinase profiling (radiometric filter-binding); format: biochemical, human; details: 1 µM inhibitor
Protocol: as §1

[11] = test system: PINK; experiment: Kinase profiling (radiometric filter-binding); format: biochemical, human; details: 1 µM inhibitor
Protocol: as §1

[12] = test system: AMPK; experiment: Kinase profiling (radiometric filter-binding); format: biochemical, human; details: 1 µM inhibitor
Protocol: as §1

[13] = fourth of four lines (Greek letter lost)
[14] = third of four lines (Greek letter lost)

Compound | remaining activity at 1 µM [1] | remaining activity at 1 µM [2] | remaining activity at 1 µM [3] | remaining activity at 1 µM [4] | remaining activity at 1 µM [5] | remaining activity at 1 µM [6] | remaining activity at 1 µM [7] | Kd [8] | Kd [9] | Residual activity, % [10, 13] | Residual activity, % [10, 14] | Residual activity, % [11] | Residual activity, % [12]
N=C(N)NCCC[C@@H](NC(=O)CNC(=O)[C@@H](CCCNC(=N)N)NC(=O)[C@@H](CCCNC(=N)N)NC(=O)CCCCCCCNCc1nc2c(sc3cc(Br)cnc32)c(=O)[nH]1)C(=O)N[C@H](CCCCN)C(N)=O [Compound 1, BPTP-Aoc-(D-Arg)2-Gly-D-Arg-D-Lys-NH2] | 74% | 81 ± 18% | 95% | 106 ± 10% | 115 ± 26% | 119 ± 8% | 113 ± 29% | 5.2 ± 1 nM | 11.4 ± 1 nM | 116 ± 6% | 109 ± 7% | 116 ± 5% | 92 ± 9%
N=C(N)NCCC[C@@H](NC(=O)CCCCCNCc1nc2c(sc3cc(Br)cnc32)c(=O)[nH]1)C(=O)N[C@H](CCCNC(=N)N)C(=O)N[C@H](CCCNC(=N)N)C(=O)N[C@H](CCCNC(=N)N)C(=O)N[C@H](CCCNC(=N)N)C(=O)N[C@H](CCCNC(=N)N)C(=O)N[C@H](CCCCN)C(N)=O [ARC-3126, BPTP-Ahx-(D-Arg)6-D-Lys-NH2] (X3-[dR][dR][dR][dR][dR][dR][dK]-NH2) | 99 ± 6% | 55 ± 9% | 82 ± 10% | 95 ± 3% | 86 ± 10% | 103 ± 5% | 105 ± 12% | 2 ± 0.5 nM | 1.8 ± 0.7 nM | 129 ± 10% | 111 ± 4% |  | 38 ± 4%
N=C(N)NCCC[C@@H](NC(=O)CCCCCNC(=O)Cn1cnc2c(I)c(I)c(I)c(I)c21)C(=O)N[C@H](CCCNC(=N)N)C(=O)N[C@H](CCCNC(=N)N)C(=O)N[C@H](CCCNC(=N)N)C(=O)N[C@H](CCCNC(=N)N)C(=O)N[C@H](CCCNC(=N)N)C(=O)N[C@H](CCCCN)C(N)=O [ARC-3125, TIBI-CH2-C(=O)-Ahx-(D-Arg)6-D-Lys-NH2] | 28 ± 7% | 3 ± 11% | 19 ± 1% | 32 ± 6% | 1 ± 1% | 34 ± 11% | 68 ± 3% |  |  |  |  |  | 
N=C(N)NCCC[C@@H](NC(=O)CNC(=O)[C@@H](CCCNC(=N)N)NC(=O)[C@@H](CCCNC(=N)N)NC(=O)CCCCCCCNCc1nc2c(sc3ccc(Br)cc32)c(=O)[nH]1)C(=O)N[C@H](CCCCN)C(N)=O [Compound 2, BBTP-Aoc-(D-Arg)2-Gly-D-Arg-D-Lys-NH2] | 5% | 81% | 31% | 49% | 101% | 110 ± 15% | 113% | 2 ± 0.4 nM | 0.4 ± 0.1 nM | 115 ± 0% | 117 ± 1% | 121 ± 17% | 91 ± 4%
CN(C)c1ccc2c(c1)Oc1cc(N(C)C)ccc1C21OC(=O)c2cc(C(=O)NCCCC[C@@H](NC(=O)[C@@H](CCCNC(=N)N)NC(=O)CNC(=O)[C@@H](CCCNC(=N)N)NC(=O)[C@@H](CCCNC(=N)N)NC(=O)CCCCc3cn(Cc4nc5c(sc6ccc(Br)cc65)c(=O)[nH]4)nn3)C(N)=O)ccc21 [Compound 8, BBTP-Tap-(D-Arg)2-Gly-D-Arg-[D-Lys(5-TAMRA)]-NH2] | 37% | 49% | 74% | 80% | 54% |  | 46% | 15.7 ± 3 nM | 20.5 ± 4 nM |  |  |  | 
N=C(N)NCCC[C@@H](NC(=O)CNC(=O)[C@@H](CCCNC(=N)N)NC(=O)[C@@H](CCCNC(=N)N)NC(=O)Cn1cc(CNCc2nc3c(sc4ccc(Br)cc43)c(=O)[nH]2)nn1)C(=O)N[C@H](CCCCN)C(N)=O [Compound 3, BBTP-Amt-(D-Arg)2-Gly-D-Arg-D-Lys-NH2] | 37 ± 15% | 49 ± 11% | 74 ± 12% | 80 ± 4% | 54 ± 6% | 86 ± 8% | 46 ± 4% | 7 ± 1 nM | 0.7 ± 0.2 nM | 111 ± 1% | 108 ± 8% | 92 ± 0% | 47 ± 6%
